Source: patent US7173041B2, “Polyglutamic acid-camptothecin conjugates and methods of preparation” (priority 2000, dated 2007)
“Also recorded” adds a separate entry of the source.

How the values were obtained:
[1] = Maximum tolerated dose (MTD) in mice; format: in vivo; conditions: for Murine single dose MTD (IP): mice, loadings as in Table 3
Source text: (§1) All injections were given intraperitoneally (IP). […] The MTD is the maximum tolerated equivalent camptothecin dose.

B16 melanoma (B-16-F0) = assay: Tumor growth delay (TGD), subcutaneous B16 melanoma in C57BL/6 mice; format: in vivo, murine; conditions: for relative anti-tumor efficacy (comparison in words): B16 model
Procedure: (§2) Tumors were produced in the […] of the right interscapular region by subcutaneously injecting 1.0×10^5 murine melanoma cells (B-16-F0; ATTC CRL-6322) in a volume of 0.2 ml PBS supplemented with 2% FBS. […] Camptothecin conjugates were dissolved in a 0.1 M Na2HPO4 solution by sonication at 45° C. for 45–60 minutes. Native camptothecins were dissolved in a mixture of 8.3% Cremophor EL/8.3% ethanol in 0.75% saline. All injections were given intraperitoneally (IP). Each treatment group consisted of 10 mice randomly allocated to each group. Tumor volume was calculated according to the formula (length×width×height)/2. Mice with tumors equal to or greater than 2000 mm^3 were euthenized by cervical dislocation. Tumor efficacy of test compounds was determined by calculating the tumor growth delay (TGD): the average time in days for the tumors in the treatment group to reach a fixed volume minus the average time for the tumors in the control group to reach the same volume. An unpaired Student's t-test was done to determine statistical differences. The compounds were tested at different concentrations to determine their MTD. The MTD is the maximum tolerated equivalent camptothecin dose.

[2] = system: HT-29 human colon carcinomas; assay: Tumor growth delay, HT-29 xenografts in athymic ncr nu/nu mice; conditions: for TGD (days to 500 mm^3) HT-29: PG 50 kD
Procedure: as §2
(§3) In addition to the above-mentioned models, one other syngeneic model was used viz. LL/2 Lewis lung (ATTC CRL-1642) and 2 xenogeneic models were used viz. human NCI-H460 lung carcinomas (ATTC HTB-177) and HT-29 human colon carcinomas (ATTC HTB-38). In these xenogeneic models instead of immunocompetent C57BL/6 mice, immunocompromised athymic ncr nu/nu mice were used. Except for the number of tumor cells implanted to generate tumors the experimental protocol and procedures were identical to that for the B-16/F0 model.

animal tumor models = assay: General comparison of PG-camptothecin conjugates in animal tumor models; set-up: species or system mice; conditions: mouse, in vivo
Source text: as §1

[3] = Aqueous solubility of PG-camptothecin conjugates; conditions: for Aqueous solubility: % CPT in conjugate (w/w): PG-CPT 14, PG-gly-CPT 37, PG-(10-OAc-CPT) 13, PG-(10-O-CPT) 13, PG-gly-(10-O-CPT) 20, PG-(10-OH-CPT) 19, PG-(9-NH-CPT) 14
[4] = system: NCI-H460 human non-small cell lung cancer xenografts; assay: NCI-H460 xenografts in female nude mice, dosing every 4th day x4; format: in vivo
Procedure: Female nude mice with 7–8 mm subcutaneous NCI-H460 human non-small cell lung cancer xenografts were treated with PG-gly-CPT on days 1, 5, 9, and 13 at a dose of 40 mg/kg 20(S)-camptothecin per injection. The tested dose of 40 mg eq. […] Although there were no deaths, weight loss was approximately 20% of the starting weight. The absolute tumor growth delay (defined as difference in days for tumors to grow from 8 mm to 12 mm between the treated and the control groups) was 43 days for the PG-gly-CPT treated mice.

[5] = system: NCI-H322 human lung cancer; assay: NCI-H322 human lung cancer s.c. in female nude mice; format: in vivo; conditions: 33 kD, 37% loaded, i.v. days 9, 13, 17, 21 at 40 mg/kg 20(S)-camptothecin equivalent
Procedure: The antitumor activity of PG-gly-CPT (33 kD, 37% loaded) on NCI-H322 (ATTC CRL-5806) human lung cancer inoculated s.c. in female nude mice was studied. The drug was injected i.v. on days 9, 13, 17 and 21 at a 20(S)-camptothecin equivalent dose of 40 mg/kg when tumors measured 7–8 mm in diameter. The TGD was 40 days.

[6] = system: NCI-H1299 human lung cancer cells; assay: NCI-H1299 human lung cancer s.c. in female nude mice; conditions: 30 mg eq. 20(S)-camptothecin every 4th day x4
Procedure: 20(S)-camptothecin/kg in the prior experiment in nude mice, the dose was lowered to 30 mg eq. 20(S)-camptothecin every 4th day×4.

[7] = system: human NCI-H460 lung carcinomas; assay: Tumor growth delay, NCI-H460 xenografts in athymic ncr nu/nu mice; format: in vivo; conditions: PG 50 kD
Procedure: as §2, §3

[8] = Table 4, PG 50 kD (PG-CPT: 33 kD)
[9] = second experiment, i.p., same schedule
[10] = CPT loading 19%, dose 33 mg CPT/kg
[11] = CPT loading 33%, dose 38 mg CPT/kg
[12] = CPT loading 39%, dose 40 mg CPT/kg
[13] = CPT loading 47%, dose 40 mg CPT/kg
[14] = 40 mg eq. 20(S)-camptothecin/kg every 4th day x4
[15] = CPT loading 30%, dose 34 mg CPT/kg

With PG-(2-O-acetyl)-CPT the MTD [1, 8] was “≧80 mg CPT/kg” and the “TGD (days to 500 mm^3) B16” value (B16 melanoma (B-16-F0); CPT loading 15%, dose 80 mg CPT/kg, PG 50 kD) was 3.8 days.
With PG-(4-NH-butyryl)-CPT the MTD [1, 8] was “≧80 mg CPT/kg” and the “TGD (days to 500 mm^3) B16” value (B16 melanoma (B-16-F0); CPT loading 32%, dose 80 mg CPT/kg, PG 50 kD) was 0.9 days.
For PG-(4-O-butyryl)-CPT, the MTD [1, 8] was about 36 mg CPT/kg, the “TGD (days to 500 mm^3) HT-29” value ([2]; CPT loading 24%, dose 36 mg CPT/kg) was 13.1 days and the “TGD (days to 500 mm^3) B16” value (B16 melanoma (B-16-F0); CPT loading 32%, dose 37 mg CPT/kg, PG 50 kD) was 2.8 days.
With PG-(9-NH-CPT) the MTD ([1]; mouse, in vivo) was > 25 mg eq. 20(S)-9-aminocamptothecin/kg, the “Murine single dose MTD (IP)” value [1] was over 25 mg eq. CPT/kg and the “overall efficacy, tolerability and solubility (in words)” value (animal tumor models) was “active”. The Aqueous solubility [3] was 7000 µg/mL.
With PG-(10-O-CPT) the “Murine single dose MTD (IP)” value [1] was 50 mg eq. CPT/kg and the Aqueous solubility [3] was 10000 µg/mL.
In the case of PG-(10-OAc-CPT), the “Murine single dose MTD (IP)” value [1] is reported as 10–20 mg eq. CPT/kg, the TGD (B16 melanoma (B-16-F0); 50 mg eq. 20(S)-10-hydroxycamptothecin/kg, p<0.01 compared to control) is reported as 5.3 days and the “relative anti-tumor efficacy (comparison in words)” value (shortened to “relative anti-tumor efficacy”) (B16 melanoma (B-16-F0)) is reported as “appeared more active at 50 mg eq. 20(S)-10-hydroxycamptothecin/kg than PG-gly-(10-O-CPT)”. The “aqueous solubility / solution behaviour (in words)” value [3] was “solution was very viscous”, the Aqueous solubility [3] was 10000 µg/mL and the “time after which the compound precipitated out of solution” value ([3]; dosing solution) was “approx. 30 min”.
In the case of PG-(10-OH-CPT), the “Murine single dose MTD (IP)” value [1] is reported as over 50 mg eq. CPT/kg, the “relative anti-tumor efficacy” value (B16 melanoma (B-16-F0)) is reported as “not as effective as the PG-(10-OAc-CPT) or the PG-gly-(10-OH-CPT)” and the Aqueous solubility [3] is reported as over 10000 µg/mL.
For PG-(β-ala)-CPT, the MTD [1, 8] was “≧67 mg CPT/kg” and the “TGD (days to 500 mm^3) B16” value (B16 melanoma (B-16-F0); CPT loading 31%, dose 67 mg CPT/kg, PG 50 kD) was 1.1 days.
For PG-(γ-glu)-CPT, the MTD [1, 8] was “≧54 mg CPT/kg” and the “TGD (days to 500 mm^3) B16” value (B16 melanoma (B-16-F0); CPT loading 21%, dose 54 mg CPT/kg, PG 50 kD) was 0.8 days.
In the case of PG-CPT, the MTD [1, 8] is reported as “≧80 mg CPT/kg”, the “Murine single dose MTD (IP)” value [1] is reported as 60–80 mg eq. CPT/kg and the “TGD (days to 500 mm^3) B16” value (B16 melanoma (B-16-F0); CPT loading 20%, dose 80? mg CPT/kg, PG 33 kD) is reported as 4.0 days. For the same substance, the toxicity observations [4, 9] was “without observable toxicity” and the “tumor growth delay” value [4, 9] was “substantial growth delay”.
With PG-ala-CPT the MTD [1, 8] was “≧73 mg CPT/kg” and the “TGD (days to 500 mm^3) B16” value (B16 melanoma (B-16-F0); CPT loading 20%, dose 73 mg CPT/kg, PG 50 kD) was 2.2 days.
PG-gly-(10-O-CPT) showed an Aqueous solubility [3] of over 10000 µg/mL.
With PG-gly-(10-OH-CPT) the “relative anti-tumor efficacy” value (B16 melanoma (B-16-F0)) was “approximately twice as efficacious as PG-gly-(7-Et-10-OH-CPT)”.
With PG-gly-CPT the “MTD in male ncr nu/nu mice” value ([1]; PG 50 kD, (mono) glycine linker, 35–37% 20(S)-camptothecin) was 40 mg/kg 20(S)-camptothecin equivalents, the MTD [1, 8] was about 40 mg CPT/kg and the “Murine single dose MTD (IP)” value [1] was 60–80 mg eq. CPT/kg. For the same substance, the “TGD (days to 500 mm^3) HT-29” value [2, 10] was 4.1 days, the “TGD (days to 500 mm^3) HT-29” value ([2]; CPT loading 33%, dose 33 mg CPT/kg) was 11.9 days and the “TGD (days to 500 mm^3) HT-29” value [2, 11] was 20.3 days. The “TGD (days to 500 mm^3) HT-29” value [2, 12] was 25.8 days, the “TGD (days to 500 mm^3) HT-29” value [2, 13] was 5.8 days and the “tolerability of repeated dosing” value ([2]; ip, 4 times with a weekly interval, total dose 3 times the single dose) was “very well tolerated”. For the same substance, the TGD [5] was 40 days, the “TGD (days to 500 mm^3) B16” value (B16 melanoma (B-16-F0); CPT loading 32%, dose 35 mg CPT/kg, PG 50 kD) was 3.3 days and the TGD [6] was 32 days. For the same substance, the tolerability [6] was “well-tolerated”, the toxicity observations [4, 14] was “no deaths; also recorded: modestly exceeded the MTD” and the “weight loss, of the starting weight” value [4, 14] was “approximately 20%”. For the same substance, the “absolute tumor growth delay (tumors to grow from 8 mm to 12 mm, treated vs control)” value ([4]; 40 mg/kg 20(S)-camptothecin per injection, days 1, 5, 9, 13) was 43 days, the “TGD (days to 500 mm^3) NCI-H460” value [7, 11] was 15.8 days and the “TGD (days to 500 mm^3) NCI-H460” value [7, 12] was 38.5 days. For the same substance, the “TGD (days to 500 mm^3) NCI-H460” value [7, 13] was 6.5 days.
In the case of PG-gly-gly-CPT, the MTD [1, 8] is reported as “≧33 mg CPT/kg” and the “TGD (days to 500 mm^3) HT-29” value [2, 10] is reported as 4.5 days.
For PG-gly-gly-gly-CPT, the MTD [1, 8] was “≦34 mg CPT/kg”, the “TGD (days to 500 mm^3) HT-29” value [2, 10] was 6.9 days and the “TGD (days to 500 mm^3) HT-29” value [2, 15] was 28.4 days. For the same substance, the “TGD (days to 500 mm^3) NCI-H460” value [7, 15] was 38.5 days.
